Test results from PMC8677033.

Molecular target: HIS-RBS1_1412 WT (UniProt Q8TEQ6 1297-1412)
Assay: EMSA

Chain of HIS-RBS1_1412 WT (Q8TEQ6 1297-1412): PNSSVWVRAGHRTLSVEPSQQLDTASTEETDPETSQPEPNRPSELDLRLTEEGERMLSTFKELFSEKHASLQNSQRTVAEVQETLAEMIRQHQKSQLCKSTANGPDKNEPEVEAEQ

Binder: UUUUU (ssRNA) [U(5)]
- binding result: no binding
